Six molecules from patent US20130005646A1 (Novo Nordisk, published 2013) can be followed below.

Starred links: 1 amine or outer side, 2 acyl side, 3 side chain; linkers in the order of their positions; H or OH if unused. Positions of bridges follow the written chain, without caps; N, C: chain ends. *: point of attachment. C20 diacid = O=C(O)CCCCCCCCCCCCCCCCCCC(=O)*; γGlu = O=C(O)[C@H](CCC(=O)[*:2])N[*:1]

T1: human calcitonin (a) receptor (human, UniProt P30988 25-474)
T1 sequence (looked up): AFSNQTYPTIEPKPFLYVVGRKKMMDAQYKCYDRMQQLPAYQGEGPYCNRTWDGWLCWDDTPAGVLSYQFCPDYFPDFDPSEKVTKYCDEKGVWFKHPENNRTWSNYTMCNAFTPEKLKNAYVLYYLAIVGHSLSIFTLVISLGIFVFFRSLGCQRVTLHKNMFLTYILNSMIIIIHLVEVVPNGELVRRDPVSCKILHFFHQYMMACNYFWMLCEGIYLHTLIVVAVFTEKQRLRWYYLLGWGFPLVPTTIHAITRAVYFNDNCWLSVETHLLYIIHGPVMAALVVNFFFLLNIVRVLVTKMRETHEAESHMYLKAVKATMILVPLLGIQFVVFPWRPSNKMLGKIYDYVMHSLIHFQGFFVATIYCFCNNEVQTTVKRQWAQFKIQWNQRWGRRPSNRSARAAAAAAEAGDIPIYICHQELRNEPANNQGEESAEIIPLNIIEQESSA

T2: human amylin 3(a) receptor (human calcitonin receptor + RAMP-3) (human, UniProt P30988 25-474; O60896 24-148)
T2 sequence (looked up) 1: T1 sequence (looked up)
T2 sequence (looked up) 2: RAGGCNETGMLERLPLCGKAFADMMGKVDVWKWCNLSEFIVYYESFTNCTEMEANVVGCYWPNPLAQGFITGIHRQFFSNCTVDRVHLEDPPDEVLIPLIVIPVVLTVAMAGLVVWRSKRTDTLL

B1: N-alpha-[(S)-4-Carboxy-4-(19-carboxynonadecanoylamino)butyryl]-Glu-Glu-[Arg1,Glu14,Arg17,Gln21,Gln35,Pro37]-pramlintide (peptide)
peptide: {C20 diacid-γGlu}-EERCNTATCATQRLAEFLRHSSQNFGPILPPTNVGSQTP-NH2
modifications: disulfide 4-9
SMILES: CC[C@H](C)[C@H](NC(=O)[C@@H]1CCCN1C(=O)CNC(=O)[C@H](Cc1ccccc1)NC(=O)[C@H](CC(N)=O)NC(=O)[C@H](CCC(N)=O)NC(=O)[C@H](CO)NC(=O)[C@H](CO)NC(=O)[C@H](Cc1c[nH]cn1)NC(=O)[C@H](CCCNC(=N)N)NC(=O)[C@H](CC(C)C)NC(=O)[C@H](Cc1ccccc1)NC(=O)[C@H](CCC(=O)O)NC(=O)[C@H](C)NC(=O)[C@H](CC(C)C)NC(=O)[C@H](CCCNC(=N)N)NC(=O)[C@H](CCC(N)=O)NC(=O)[C@@H](NC(=O)[C@H](C)NC(=O)[C@@H]1CSSC[C@H](NC(=O)[C@H](CCCNC(=N)N)NC(=O)[C@H](CCC(=O)O)NC(=O)[C@H](CCC(=O)O)NC(=O)CC[C@H](NC(=O)CCCCCCCCCCCCCCCCCCC(=O)O)C(=O)O)C(=O)N[C@@H](CC(N)=O)C(=O)N[C@@H]([C@@H](C)O)C(=O)N[C@@H](C)C(=O)N[C@@H]([C@@H](C)O)C(=O)N1)[C@@H](C)O)C(=O)N[C@@H](CC(C)C)C(=O)N1CCC[C@H]1C(=O)N1CCC[C@H]1C(=O)N[C@H](C(=O)N[C@@H](CC(N)=O)C(=O)N[C@H](C(=O)NCC(=O)N[C@@H](CO)C(=O)N[C@@H](CCC(N)=O)C(=O)N[C@H](C(=O)N1CCC[C@H]1C(N)=O)[C@@H](C)O)C(C)C)[C@@H](C)O
B2: N-alpha-[(S)-4-Carboxy-4-(19-carboxynonadecanoylamino)butyryl]-Glu-Glu-[Arg1,Glu14,Arg17,Gln21,Pro37]-pramlintide (peptide)
peptide: {C20 diacid-γGlu}-EERCNTATCATQRLAEFLRHSSQNFGPILPPTNVGSNTP-NH2
modifications: disulfide 4-9
SMILES: CC[C@H](C)[C@H](NC(=O)[C@@H]1CCCN1C(=O)CNC(=O)[C@H](Cc1ccccc1)NC(=O)[C@H](CC(N)=O)NC(=O)[C@H](CCC(N)=O)NC(=O)[C@H](CO)NC(=O)[C@H](CO)NC(=O)[C@H](Cc1c[nH]cn1)NC(=O)[C@H](CCCNC(=N)N)NC(=O)[C@H](CC(C)C)NC(=O)[C@H](Cc1ccccc1)NC(=O)[C@H](CCC(=O)O)NC(=O)[C@H](C)NC(=O)[C@H](CC(C)C)NC(=O)[C@H](CCCNC(=N)N)NC(=O)[C@H](CCC(N)=O)NC(=O)[C@@H](NC(=O)[C@H](C)NC(=O)[C@@H]1CSSC[C@H](NC(=O)[C@H](CCCNC(=N)N)NC(=O)[C@H](CCC(=O)O)NC(=O)[C@H](CCC(=O)O)NC(=O)CC[C@H](NC(=O)CCCCCCCCCCCCCCCCCCC(=O)O)C(=O)O)C(=O)N[C@@H](CC(N)=O)C(=O)N[C@@H]([C@@H](C)O)C(=O)N[C@@H](C)C(=O)N[C@@H]([C@@H](C)O)C(=O)N1)[C@@H](C)O)C(=O)N[C@@H](CC(C)C)C(=O)N1CCC[C@H]1C(=O)N1CCC[C@H]1C(=O)N[C@H](C(=O)N[C@@H](CC(N)=O)C(=O)N[C@H](C(=O)NCC(=O)N[C@@H](CO)C(=O)N[C@@H](CC(N)=O)C(=O)N[C@H](C(=O)N1CCC[C@H]1C(N)=O)[C@@H](C)O)C(C)C)[C@@H](C)O
B3: N-alpha-[(S)-4-Carboxy-4-(19-carboxynonadecanoylamino)butyryl]-Glu-Arg-[Glu1,Glu14,Arg17,Gln21,Pro37]-pramlintide (peptide)
peptide: {C20 diacid-γGlu}-ERECNTATCATQRLAEFLRHSSQNFGPILPPTNVGSNTP-NH2
modifications: disulfide 4-9
SMILES: CC[C@H](C)[C@H](NC(=O)[C@@H]1CCCN1C(=O)CNC(=O)[C@H](Cc1ccccc1)NC(=O)[C@H](CC(N)=O)NC(=O)[C@H](CCC(N)=O)NC(=O)[C@H](CO)NC(=O)[C@H](CO)NC(=O)[C@H](Cc1c[nH]cn1)NC(=O)[C@H](CCCNC(=N)N)NC(=O)[C@H](CC(C)C)NC(=O)[C@H](Cc1ccccc1)NC(=O)[C@H](CCC(=O)O)NC(=O)[C@H](C)NC(=O)[C@H](CC(C)C)NC(=O)[C@H](CCCNC(=N)N)NC(=O)[C@H](CCC(N)=O)NC(=O)[C@@H](NC(=O)[C@H](C)NC(=O)[C@@H]1CSSC[C@H](NC(=O)[C@H](CCC(=O)O)NC(=O)[C@H](CCCNC(=N)N)NC(=O)[C@H](CCC(=O)O)NC(=O)CC[C@H](NC(=O)CCCCCCCCCCCCCCCCCCC(=O)O)C(=O)O)C(=O)N[C@@H](CC(N)=O)C(=O)N[C@@H]([C@@H](C)O)C(=O)N[C@@H](C)C(=O)N[C@@H]([C@@H](C)O)C(=O)N1)[C@@H](C)O)C(=O)N[C@@H](CC(C)C)C(=O)N1CCC[C@H]1C(=O)N1CCC[C@H]1C(=O)N[C@H](C(=O)N[C@@H](CC(N)=O)C(=O)N[C@H](C(=O)NCC(=O)N[C@@H](CO)C(=O)N[C@@H](CC(N)=O)C(=O)N[C@H](C(=O)N1CCC[C@H]1C(N)=O)[C@@H](C)O)C(C)C)[C@@H](C)O
B4: N-alpha-[(S)-4-Carboxy-4-(19-carboxynonadecanoylamino)butyryl]-Glu-Glu-[Arg1,Glu14,Arg17,Pro37]-pramlintide (peptide)
peptide: {C20 diacid-γGlu}-EERCNTATCATQRLAEFLRHSSNNFGPILPPTNVGSNTP-NH2
modifications: disulfide 4-9
SMILES: CC[C@H](C)[C@H](NC(=O)[C@@H]1CCCN1C(=O)CNC(=O)[C@H](Cc1ccccc1)NC(=O)[C@H](CC(N)=O)NC(=O)[C@H](CC(N)=O)NC(=O)[C@H](CO)NC(=O)[C@H](CO)NC(=O)[C@H](Cc1c[nH]cn1)NC(=O)[C@H](CCCNC(=N)N)NC(=O)[C@H](CC(C)C)NC(=O)[C@H](Cc1ccccc1)NC(=O)[C@H](CCC(=O)O)NC(=O)[C@H](C)NC(=O)[C@H](CC(C)C)NC(=O)[C@H](CCCNC(=N)N)NC(=O)[C@H](CCC(N)=O)NC(=O)[C@@H](NC(=O)[C@H](C)NC(=O)[C@@H]1CSSC[C@H](NC(=O)[C@H](CCCNC(=N)N)NC(=O)[C@H](CCC(=O)O)NC(=O)[C@H](CCC(=O)O)NC(=O)CC[C@H](NC(=O)CCCCCCCCCCCCCCCCCCC(=O)O)C(=O)O)C(=O)N[C@@H](CC(N)=O)C(=O)N[C@@H]([C@@H](C)O)C(=O)N[C@@H](C)C(=O)N[C@@H]([C@@H](C)O)C(=O)N1)[C@@H](C)O)C(=O)N[C@@H](CC(C)C)C(=O)N1CCC[C@H]1C(=O)N1CCC[C@H]1C(=O)N[C@H](C(=O)N[C@@H](CC(N)=O)C(=O)N[C@H](C(=O)NCC(=O)N[C@@H](CO)C(=O)N[C@@H](CC(N)=O)C(=O)N[C@H](C(=O)N1CCC[C@H]1C(N)=O)[C@@H](C)O)C(C)C)[C@@H](C)O
B5: N-alpha-[(S)-4-Carboxy-4-(19-carboxynonadecanoylamino)butyryl]-Glu-[Arg1,Glu14,Arg17,Pro37]-pramlintide (peptide)
peptide: {C20 diacid-γGlu}-ERCNTATCATQRLAEFLRHSSNNFGPILPPTNVGSNTP-NH2
modifications: disulfide 3-8
SMILES: CC[C@H](C)[C@H](NC(=O)[C@@H]1CCCN1C(=O)CNC(=O)[C@H](Cc1ccccc1)NC(=O)[C@H](CC(N)=O)NC(=O)[C@H](CC(N)=O)NC(=O)[C@H](CO)NC(=O)[C@H](CO)NC(=O)[C@H](Cc1c[nH]cn1)NC(=O)[C@H](CCCNC(=N)N)NC(=O)[C@H](CC(C)C)NC(=O)[C@H](Cc1ccccc1)NC(=O)[C@H](CCC(=O)O)NC(=O)[C@H](C)NC(=O)[C@H](CC(C)C)NC(=O)[C@H](CCCNC(=N)N)NC(=O)[C@H](CCC(N)=O)NC(=O)[C@@H](NC(=O)[C@H](C)NC(=O)[C@@H]1CSSC[C@H](NC(=O)[C@H](CCCNC(=N)N)NC(=O)[C@H](CCC(=O)O)NC(=O)CC[C@H](NC(=O)CCCCCCCCCCCCCCCCCCC(=O)O)C(=O)O)C(=O)N[C@@H](CC(N)=O)C(=O)N[C@@H]([C@@H](C)O)C(=O)N[C@@H](C)C(=O)N[C@@H]([C@@H](C)O)C(=O)N1)[C@@H](C)O)C(=O)N[C@@H](CC(C)C)C(=O)N1CCC[C@H]1C(=O)N1CCC[C@H]1C(=O)N[C@H](C(=O)N[C@@H](CC(N)=O)C(=O)N[C@H](C(=O)NCC(=O)N[C@@H](CO)C(=O)N[C@@H](CC(N)=O)C(=O)N[C@H](C(=O)N1CCC[C@H]1C(N)=O)[C@@H](C)O)C(C)C)[C@@H](C)O
B6: N-alpha-[(S)-4-Carboxy-4-(19-carboxynonadecanoylamino)butyryl]-Glu-Arg-[Glu1,Glu14,Arg17,Gln21,Gln35,Pro37]-pramlintide (peptide)
peptide: {C20 diacid-γGlu}-ERECNTATCATQRLAEFLRHSSQNFGPILPPTNVGSQTP-NH2
modifications: disulfide 4-9
SMILES: CC[C@H](C)[C@H](NC(=O)[C@@H]1CCCN1C(=O)CNC(=O)[C@H](Cc1ccccc1)NC(=O)[C@H](CC(N)=O)NC(=O)[C@H](CCC(N)=O)NC(=O)[C@H](CO)NC(=O)[C@H](CO)NC(=O)[C@H](Cc1c[nH]cn1)NC(=O)[C@H](CCCNC(=N)N)NC(=O)[C@H](CC(C)C)NC(=O)[C@H](Cc1ccccc1)NC(=O)[C@H](CCC(=O)O)NC(=O)[C@H](C)NC(=O)[C@H](CC(C)C)NC(=O)[C@H](CCCNC(=N)N)NC(=O)[C@H](CCC(N)=O)NC(=O)[C@@H](NC(=O)[C@H](C)NC(=O)[C@@H]1CSSC[C@H](NC(=O)[C@H](CCC(=O)O)NC(=O)[C@H](CCCNC(=N)N)NC(=O)[C@H](CCC(=O)O)NC(=O)CC[C@H](NC(=O)CCCCCCCCCCCCCCCCCCC(=O)O)C(=O)O)C(=O)N[C@@H](CC(N)=O)C(=O)N[C@@H]([C@@H](C)O)C(=O)N[C@@H](C)C(=O)N[C@@H]([C@@H](C)O)C(=O)N1)[C@@H](C)O)C(=O)N[C@@H](CC(C)C)C(=O)N1CCC[C@H]1C(=O)N1CCC[C@H]1C(=O)N[C@H](C(=O)N[C@@H](CC(N)=O)C(=O)N[C@H](C(=O)NCC(=O)N[C@@H](CO)C(=O)N[C@@H](CCC(N)=O)C(=O)N[C@H](C(=O)N1CCC[C@H]1C(N)=O)[C@@H](C)O)C(C)C)[C@@H](C)O

The target in one test is T1, human calcitonin (a) receptor. The experiment in a line: cell-based or functional assay.
Regarding B1, the “CTa receptor human EC50” value turned out to be 1.19 nM.
The same measure, in the same setting: for B2 the value was 0.547 nM; for B3, 1.13 nM.
On to B4, for which the “CTa receptor human EC50” value was found to be 0.526 nM.
Same read-out and setting: next, B5: 0.168 nM.
Take B6: the “CTa receptor human EC50” value is 2.19 nM.

The target in the next test is T2, human amylin 3(a) receptor (human …). Description: cell-based or functional assay.
Regarding B1, the “Amylin receptor human EC50” value is 1.13 nM.
Turning to B2, the “Amylin receptor human EC50” value was found to be 0.465 nM.
The same measure, in the same setting: for B3 the value was 0.232 nM; for B4, 0.313 nM; for B5, 0.066 nM.
The same measure, in the same setting: next, B6: 0.411 nM.
